Data as given in article doi:10.1101/2024.06.21.600001.

Molecular target: EBOV GP ectodomain, mucin-like domain deleted (EBOV GP[change] ectodomain), Mayinga, residues 33-651, double Strep-tag (Zaire ebolavirus (EBOV), Mayinga) (UniProt Q05320)
Assay: cryo-EM structure

“EBOV GP ectodomain, mucin-like domain deleted (EBOV GP[change] ectodomain), Mayinga, residues 33-651, double Strep-tag (from UniProt Q05320 33-651) (domain or fragment)” gave a stoichiometry N of 3.
